From article PMC11322666 (2024)

B1: UPF3B^WT, Flag tagged [human] / inositol-requiring enzyme-1α (IRE1α), endogenous [human (endogenous in HEK293T and U2OS)] (parent complex)
chain 1: MKEEKEHRPKEKRVTLLTPAGATGSGGGTSGDSSKGEDKQDRNKEKKEALSKVVIRRLPPTLTKEQLQEHLQPMPEHDYFEFFSNDTSLYPHMYARAYINFKNQEDIILFRDRFDGYVFLDNKGQEYPAIVEFAPFQKAAKKKTKKRDTKVGTIDDDPEYRKFLESYATDNEKMTSTPETLLEEIEAKNRELIAKKTTPLLSFLKNKQRMREEKREERRRREIERKRQREEERRKWKEEEKRKRKDIEKLKKIDRIPERDKLKDEPKIKVHRFLLQAVNQKNLLKKPEKGDEKELDKREKAKKLDKENLSDERASGQSCTLPKRSDSELKDEKPKRPEDESGRDYREREREYERDQERILRERERLKRQEEERRRQKERYEKEKTFKRKEEEMKKEKDTLRDKGKKAESTESIGSSEKTEKKEEVVKRDRIRNKDRPAMQLYQPGARSRNRLCPPDDSTKSGDSAAERKQESGISHRKEGGEE
chain 2: IFGSTSTVTLPETLLFVSTLDGSLHAVSKRTGSIKWTLKEDPVLQVPTHVEEPAFLPDPNDGSLYTLGSKNNEGLTKLPFTIPELVQASPCRSSDGILYMGKKQDIWYVIDLLTGEKQQTLSSAFADSLCPSTSLLYLGRTEYTITMYDTKTRELRWNATYFDYAASLPEDDVDYKMSHFVSNGDGLVVTVDSESGDVLWIQNYASPVVAFYVWQREGLRKVMHINVAVETLRYLTFMSGEVGRITKWKYPFPKETEAKSKLTPTLYVGKYSTSLYASPSMVHEGVAVVPRGSTLPLLEGPQTDGVTIGDKGECVITPSTDVKFDPGLKSKNKLNYLRNYWLLIGHHETPLSASTKMLERFPNNLPKHRENVIPADSEKKSFEEVINLVDQTSENAPTTVSRDVEEKPAHAPARPEAPVDSMLKDMATIILSTFLLIGWVAFIITYPLSMHQQQQLQHQQFQKELEKIQLLQQQQQQLPFHPPGDTAQDGELLDTSGPYSESSGTSSPSTSPRASNHSLCSGSSASKAGSSPSLEQDDGDEETSVVIVGKISFCPKDVLGHGAEGTIVYRGMFDNRDVAVKRILPECFSFADREVQLLRESDEHPNVIRYFCTEKDRQFQYIAIELCAATLQEYVEQKDFAHLGLEPITLLQQTTSGLAHLHSLNIVHRDLKPHNILISMPNAHGKIKAMISDFGLCKKLAVGRHSFSRRSGVPGTEGWIAPEMLSEDCKENPTYTVDIFSAGCVFYYVISEGSHPFGKSLQRQANILLGACSLDCLHPEKHEDVIARELIEKMIAMDPQKRPSAKHVLKHPFFWSLEKQLQFFQDVSDRIEKESLDGPIVKQLERGGRAVVKMDWRENITVPLQTDLRKFRTYKGGSVRDLLRAMRNKKHHYRELPAEVRETLGSLPDDFVCYFTSRFPHLLAHTYRAMELCSHERLFQPYYFHEPPEPQPPVTPDAL

Variants of: B1
Experiment: co-immunoprecipitation (IP: Flag, blot IRE1α), western blot band quantification; transfected for 24 h

Row | ratio to parent | Variant
1 | 1.22 | chain 1 T197A
2 | 1.1 | chain 1 T197D

Variants of: B1
Experiment: co-immunoprecipitation (IP: Flag, blot IRE1α), western blot band quantification; U2OS cells, transfected for 24 h

Row | ratio to parent | Variant
3 | 0.17 | chain 1 Y160D
4 | 1.29 | chain 1 Y160F

Variants of: B1
Experiment: co-immunoprecipitation (IP: Flag, blot IRE1α), western blot band quantification; HEK293T cells, transfected for 24 h

Row | ratio to parent | Variant
5 | 0.21 | chain 1 Y160D
6 | 1.28 | chain 1 Y160F

Variants of: B1
Experiment: as above
Remark: another data set of the same source

Row | ratio to parent | Variant
7 | 0.26 | chain 1 T169D
8 | 1.15 | chain 1 T169A

Variants of: B1
Experiment: co-immunoprecipitation (IP: Flag, blot IRE1α), western blot band quantification; transfected for 24 h
Remark: another data set of the same source

Row | ratio to parent | Variant
9 | 1.21 | chain 1 T198D
10 | 1.06 | chain 1 T198A
